Assay [1] has as its target T1, RbAp46 (Homo sapiens, UniProt Q16576).
T1 construct: His-tag (cleaved yes); made in house; host or cells: insect cells (baculovirus)
In words: Reciprocal pull-down of 35S-labeled RbAp46 with GST-histone H4 (1–48) mutants. It counts as binding. The following applies: autoradiogram, 300 mM NaCl, 20 mM Tris pH 8.0, 5 mM DTT, 0.1% (v/v) NP-40. The source says:
Figure 2 Histone H4 Recognition by the RbAp46-Binding Pocket (A) Electrostatic surface potential of RbAp46 contoured and color coded at −91 kT (red) and +91 kT (blue). […] The histone H4 peptide is shown as a stick model. The histone H4-binding pocket in RbAp46 is mainly formed by the negatively charged PP loop (which terminates in Pro-362 and Pro-363) and a hydrophobic surface on the N-terminal α helix (helix 1). The interaction of histone H4 residues (Gln-27, Lys-31, Ile-34, Arg-35, Arg-36, Leu-37, Arg-39, and Arg-40) is shown. (B) Detailed view showing the interactions of the hydrophobic Ile-34 and Leu-37 histone H4 residues with Phe-29 and Leu-30 in helix 1 of RbAp46, as well as the positively charged Arg-36, Arg-39, and Arg-40 histone H4 residues with the backbone carbonyl groups in the PP loop and a cluster of acidic residues (Glu-356, Asp-357, and Asp-360) in RbAp46. […] In each experiment, the input lane contains 30% of the ^35S-labeled RbAp46 protein used in each of the pull-down assays. The experiments were carried out in 300 mM NaCl, 20 mM Tris (pH 8.0), 5 mM DTT, and 0.1% (v/v) NP-40.
Recombinant histone H4 and RbAp46 proteins were expressed and purified as described previously ([Verreault et al., 1998; Berger et al., 2004]). Detailed procedures for the generation of the RbAp46/histone H4 peptide and recombinant histone H4 complexes can be found in the Supplemental Data. Recombinant full-length (Xenopus lavis) histones H3 and H4 were expressed, purified, and refolded as described ([Luger et al., 1997]). For the binding experiments, histones H3/H4 and lysozyme (Sigma) were crosslinked to DynaBeads (Dynal Biotech) according to the manufacturer's recommendations. RbAp46 and histone H4 mutants were generated by using the QuikChange Site-Directed Mutagenesis kit (Stratagene). The RbAp46 mutants were expressed by using a Rabbit Reticulocyte Cell Free system (Promega).

The next assay relates to RbAp46 or RbAp48. The settings on record: ref Verreault et al., 1998; cited from earlier work.
Assay [2] has as its target T1, RbAp46. In words: BS3 chemical crosslinking with RbAp46. It counts as binding. The settings on record: BS3 crosslinker; 1.1 M NaCl, 20 mM HEPES pH 7.5, 10 mM DTT; ∼10 μM protein; room temperature 30 min; NuPAGE, Coomassie and anti-H3/anti-H4 immunoblot. The source says: Figure 4 Interaction of Histones H3 and H4 with RbAp46 (A) Comparison of chemical crosslinking of histones H3 and H4 in the absence and presence of RbAp46. Three different 4%–12% NuPAGE gels were either (i) stained with Coomasie blue or blotted with (ii) anti-histone H4 or (iii) anti-histone H3 antibodies. By themselves, histones H3 and H4 appear to form a H3/H4 heterodimer (∼25 kDa), an H3_2 homodimer (∼30 kDa), and an H3_2/H4_2 heterotetramer (∼50 kDa), indicated by arrowheads. In the presence of RbAp46, two bands, which both contain histones H3 and H4 (also indicated by arrowheads), can be seen in positions roughly corresponding to the interaction of RbAp46 with histone H3/H4 dimers and tetramers (∼65–75 kDa). […] The fractions were collected and analyzed on 4%–12% NuPAGE gels.
RbAp46/H3/H4 crosslinking was performed by using the BS^3 crosslinker (Pierce) in 1.1 M NaCl, 20 mM HEPES (pH 7.5), and 10 mM DTT. Freshly prepared BS^3 stock solution, 3% (w/v), was diluted 1/5, 1/10, 1/20, 1/50, and 1/100 with distilled water, and 1 μl of the resulting solution was mixed with 10 μl of ∼10 μM RbAp46, recombinant histone H3/H4, or RbAp46/H3/H4 prior to incubation at room temperature for 30 min. […] The proteins were analyzed on separate 4%–12% NuPAGE gels, one for Coomassie blue staining and one for each Western blot with either anti-histone H3 (Abcam) or anti-histone H4 (A.V.) antibodies.
On the technique in general: Immunoblotting shows a protein as a band on a membrane.

T1 sequence (Q16576 whole entry): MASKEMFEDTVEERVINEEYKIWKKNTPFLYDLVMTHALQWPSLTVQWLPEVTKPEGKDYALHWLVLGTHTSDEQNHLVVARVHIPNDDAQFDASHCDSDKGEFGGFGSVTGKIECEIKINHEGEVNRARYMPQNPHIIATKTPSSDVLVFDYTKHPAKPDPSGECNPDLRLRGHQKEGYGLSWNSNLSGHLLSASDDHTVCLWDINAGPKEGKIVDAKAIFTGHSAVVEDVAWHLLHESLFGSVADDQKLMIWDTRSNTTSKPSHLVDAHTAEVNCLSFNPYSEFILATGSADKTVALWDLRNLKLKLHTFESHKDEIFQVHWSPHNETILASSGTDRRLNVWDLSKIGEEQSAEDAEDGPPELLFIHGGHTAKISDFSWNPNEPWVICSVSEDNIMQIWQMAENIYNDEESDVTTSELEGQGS

Turning to “R39V + R40N: GST-histone H4 (1–48) mutated in residues interacting with the charged PP loop”, the “Effect of histone H4 mutation on binding to RbAp46” value (“Effect of histone H4 mutation” below) in the assay with RbAp46 [1] is on record as “disrupt the binding”.
Consider “L37D + R39V + R40N: GST-histone H4 (1–48) mutated in residues interacting with both helix 1 and the charged PP loop”, for which, in the assay with RbAp46 [1], the “Effect of histone H4 mutation” value is given as “disrupt the binding”.
As for “I34T + L37D + R35S: GST-histone H4 (1–48) mutated in residues interacting with both helix 1 and the charged PP loop”, the “Effect of histone H4 mutation” value in the assay with RbAp46 [1] was “disrupt the binding”.
As to “residues 15–41 of histone H4: residues 15–41 of histone H4, sufficient for recognition by RbAp46 or RbAp48 (earlier studies)”, in the assay on RbAp46 or RbAp48, the “Recognition by RbAp46 or RbAp48” value was “sufficient for recognition by either RbAp46 or RbAp48”.
For “lysozyme: positively charged lysozyme protein (Sigma), negative control”, in the assay with RbAp46 [2], the “Crosslinked species with RbAp46” value is recorded as “no crosslinked species”.
